Experimental data: patent US20150087581A1 (AURIGENE DISCOVERY TECHNOLOGIES, published 2015)
Where no end group is shown, it is not given here.

Molecular target: T1, recombinant hPDL-2 overexpressed on HEK 293 cells (human, UniProt Q9BQ51 20-273)
T1 chain: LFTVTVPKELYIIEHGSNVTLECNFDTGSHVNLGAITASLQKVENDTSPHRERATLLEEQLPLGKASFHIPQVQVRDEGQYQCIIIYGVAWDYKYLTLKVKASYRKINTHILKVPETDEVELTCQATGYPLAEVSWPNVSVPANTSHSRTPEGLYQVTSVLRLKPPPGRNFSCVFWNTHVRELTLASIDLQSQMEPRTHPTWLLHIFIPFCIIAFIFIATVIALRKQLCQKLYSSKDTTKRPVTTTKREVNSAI
Experiment: flow cytometry, inhibition of soluble PD1-Fc binding to hPDL2-expressing HEK293 cells

- EC50: 0.722 nM
B1: Compound 8 (peptide)
peptide: SNTSESFKFRVTQLAPKAQIKE-NH2
modifications: not fully specified (residue 8)
